B1: Far upstream element-binding protein 1, residues 184 to 257; numbered along this chain, Q96AE4 (parent)
chain: GNAVQEIMIPASKAGLVIGKGGETIKQLQERAGVKMVMIQDGPQNTGADKPLRITGDPYKVQQAKEMVLELIRD

Variants of: B1
Assay: abundance fitness (aPCA) (normalised: wild type 0, dead -1); higher = more abundant; growth selection in yeast, the domain comes from the species named
Settings: Homo sapiens

Abundance fitness, by site and new letter:
G42: Y 0.055
P43: A 0.023; C -0.049; D -0.055; E -0.01; F -0.079; G 0.05; H 0.003; I -0.011; K 0.064; L -0.053; M -0.016; N -0.123; Q -0.057; R -0.012; S 0.04; T -0.119; W -0.022; Y -0.003
Q44: A -0.008; C -0.083; D 0.004; E -0.06; F -0.082; G 0.007; H 0.042; I -0.046; K 0.038; L -0.055; M -0.007; N 0.02; P 0.006; R -0.048; S -0.04; V -0.067; W -0.088; Y -0.002
N45: A -0.019; D 0.013; E -0.024; F 0.023; G -0.008; H -0.022; I -0.029; K -0.008; L -0.128; M -0.055; P -0.055; R -0.022; S -0.057; V -0.057; W -0.105; Y -0.091
T46: A -0.073; C -0.058; F -0.085; G -0.024; H -0.055; I -0.062; K -0.066; L -0.038; M -0.028; N -0.074; P -0.012; Q -0.022; R -0.046; S -0.04; V -0.004; W -0.136; Y -0.115
G47: A -0.02; D -0.043; E -0.038; F -0.014; H -0.167; I -0.168; K 0.061; L -0.069; M -0.043; N -0.034; P -0.108; Q -0.027; R -0.096; S -0.001; T -0.018; V -0.054; W -0.157
A48: C 0.053; D 0.077; E 0.021; F -0.01; G 0.002; I 0.005; K 0.003; M 0.02; N -0.086; P -0.042; R -0.018; S -0.035; T 0.013; V -0.015; W -0.124
D49: A -0.029; C -0.057; F -0.081; G -0.084; H -0.012; I -0.148; K -0.087; L -0.052; N -0.034; P -0.01; Q -0.096; R -0.129; S -0.077; T -0.045; V -0.068; W -0.114; Y -0.015
K50: A -0.027; C -0.057; D -0.525; E -0.202; G -0.201; H -0.04; I -0.068; L 0.019; M -0.035; N -0.071; P -0.202; R -0.005; S -0.068; T -0.019; V -0.005; W -0.058; Y 0.018
P51: A -0.011; C -0.005; D -0.358; E -0.014; F -0.077; H -0.026; I -0.086; K -0.03; L -0.057; M 0.028; N -0.049; Q -0.108; R 0.007; T -0.018; W -0.066; Y -0.059
L52: A -0.807; C -0.229; D -0.702; E -0.956; G -0.886; H -0.853; I -0.055; K -0.841; M -0.047; N -0.746; Q -0.97; S -0.918; T -0.878; V -0.145; W -0.738
